# Laboratory results taken from patent US20130053541A1, “METHODS FOR DISCOVERING MOLECULES THAT BIND TO PROTEINS” (LYNNTECH, INC., priority 2011, published 2013).
# Where no end group is shown, it is not given here.
# T1: native human ESRRG protein (Estrogen-receptor related receptor gamma) (human, UniProt P62508 229-458, limits assumed)
# T1 construct: the screened protein is called 'native human ESRRG protein'; also called ESSRG; ERRγ
# T1 sequence (looked up): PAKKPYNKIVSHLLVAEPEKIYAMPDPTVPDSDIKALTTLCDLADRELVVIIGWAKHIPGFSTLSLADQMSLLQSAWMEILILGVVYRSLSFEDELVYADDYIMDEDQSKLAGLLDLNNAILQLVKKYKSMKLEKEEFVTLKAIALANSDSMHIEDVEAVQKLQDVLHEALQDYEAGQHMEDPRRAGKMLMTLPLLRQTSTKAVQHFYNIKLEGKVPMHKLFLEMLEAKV
# Molecular target: T1, native human ESRRG protein …
# Test: peptide microarray, Iteration 1; bound ESRRG detected with fluorescent anti-ESRRG mAb
# Method: (§1) Screening was carried out typically by hybridization of the protein (1 μg/mL) against the array for 1 h at 4° C.; detection of bound protein was carried out using a fluorescently labeled anti-ESRRG mAb. (Direct labeling of ESRRG and alternative detection strategies are equally valid).
# Daughter candidate ligands and their new Tier 3 and/or Tier 1 based combinations were synthesized in situ on an addressable peptide microarray and screened against native human ESRRG protein in order to determine sequences that bind to this protein. Bound protein was detected by a fluorescently labeled anti-ESRRG mAb. […] Excess (100×) competing biological matrices (human serum, HSA/BSA or bacterial protein extract) were used as backgrounds to select for specific ligands to the protein. Other competing proteins can be added to background for specificity selection and directed evolution of ligands.
Binder,Sample B (Probe) Signal,log2 (Sample B/Sample A)
Ac-ANNSLLLH,1320 fluorescence intensity units,6.51
Ac-ANNILLLH,1090 fluorescence intensity units,6.34
Ac-ANNIQLLH,806 fluorescence intensity units,8.57
Ac-ANNFLLLH,1620 fluorescence intensity units,5.13
Ac-NSLLQHLL,9740 fluorescence intensity units,12
Ac-NSLRSHLL,1670 fluorescence intensity units,6.34
Ac-NSLRQHLL,3240 fluorescence intensity units,6.08
Ac-IKQNYNNS,740 fluorescence intensity units,4.97
Ac-LHLRYSQT,961 fluorescence intensity units,4.86

# Molecular target: T1, native human ESRRG protein …
# Test: peptide microarray, Iteration 2; bound ESRRG detected with fluorescent anti-ESRRG mAb
# Method: as §1
# Iterative sequence expansion and arraying of 10 highest binding ligands to ESRRG from Iteration 1 was carried out and the new peptide sequences were synthesized on an array and screened against the protein, as described above. In this step, the central 2 amino acids (core) in peptide sequences were maintained unchanged while outlying amino acids (2, 3, 6, and 7) were permuted (using Tier 1 and Tier 3 substitutions) in a ‘cipher’ or ‘combination’ lock approach.
Binder,Sample B (Probe) Signal,log2 (Sample B/Sample A)
Ac-LFKLKQND,1860 fluorescence intensity units,2.34
Ac-LFKLKQDG,2780 fluorescence intensity units,3.32
Ac-PGKGHFPI,998 fluorescence intensity units,1.94
Ac-WRSYPRRA,2610 fluorescence intensity units,2.07
Ac-HLKLKQEN,1750 fluorescence intensity units,3.25
Ac-FWNMYLNP,775 fluorescence intensity units,2.29
Ac-AHNYLLEH,619 fluorescence intensity units,2.42
Ac-PWKLKQDP,1340 fluorescence intensity units,2.76
Ac-WNSYPRND,2200 fluorescence intensity units,2.91
Ac-IFLLQQDN,1010 fluorescence intensity units,2.08
Ac-FFKGHFKF,5440 fluorescence intensity units,3.32
Ac-DRSYPRHT,271 fluorescence intensity units,1.98
Ac-FFNFSLPA,1040 fluorescence intensity units,2.66
Ac-HNNFSLEP,441 fluorescence intensity units,2.03
Ac-WGKLKQGE,1230 fluorescence intensity units,2.56
Ac-EESYPRDK,554 fluorescence intensity units,2.19
Ac-RLLHYGSY,1200 fluorescence intensity units,2.05

Binder,Sample B (Probe) Signal,log2 (Sample B/Sample A)
Ac-LILLQQLD,1250 fluorescence intensity units,2.82
Ac-NNSYPRHR,3420 fluorescence intensity units,2.23
Ac-HNNYLLNN,964 fluorescence intensity units,2.34
Ac-YFLLQQGP,794 fluorescence intensity units,1.97
Ac-HNSYPRNE,802 fluorescence intensity units,2.48
Ac-MYKLKQDN,746 fluorescence intensity units,2.02
Ac-HYKLKQHE,1300 fluorescence intensity units,2.97
Ac-PFKLKQGN,6980 fluorescence intensity units,2.2
Ac-YHNYLLHP,1310 fluorescence intensity units,2.45
Ac-AFNMYLDE,440 fluorescence intensity units,1.93
Ac-RRSYPRGR,1660 fluorescence intensity units,1.9
Ac-GKSYPRHR,3050 fluorescence intensity units,2.46
Ac-HRSYPRVY,2450 fluorescence intensity units,2.31
Ac-WLLLKHGL,895 fluorescence intensity units,2.01
Ac-FVNFSLGI,900 fluorescence intensity units,1.92
Ac-HFKLKQGG,3110 fluorescence intensity units,2.28
Ac-ALNFSLNW,662 fluorescence intensity units,2.12
